{"source": "paper PMC4344507", "about": "“Structural and functional characterization of a cell cycle associated HDAC1/2 complex reveals the structural basis for complex assembly and nucleosome targeting” (Nucleic Acids Research, 2015)", "proteins": {"B1": {"name": "Human DNTTIP1 (56–147) (domain or fragment, UniProt Q9H147 56-147, looked up)", "chain": "MTTSFTDPAISMDLLRAVLQPSINEEIQTVFNKYMKFFQKAALNVRDNVGEEVDAEQLIQEACRSCLEQAKLLFSDGEKVIPRLTHELPGIK", "notes": "DNTTIP1, human, residues 56-147; Native and selenomethionine substituted protein were both crystallized; six molecules (three dimers) in the asymmetric unit; also called DD; N-terminal dimerization domain; source: E. coli Rosetta-pLysS or B834(DE3), purified (Ni-NTA, Resource Q, Superdex S75)"}}, "molecular_target": "the molecule itself", "experiment": "crystal structure; DNTTIP1 (56–147), hanging drops at 22°C, 100 mM sodium acetate pH 4.6, 14% propan-2-ol; MAD phasing with SeMet protein; P212121"}
{"protein": "B1", "values": [{"measurement": "stoichiometry N", "result": 2}]}
